Source: patent US12590158 (XIYUAN ANJIAN MEDICINE SHANGHAI, dated 2026)

B1: human-mouse chimeric antibody 42F5-Chi (antibody, V domains shown)
VH: QVQLQQPGAELVKPGASVKLSCKSSGYTFTNYWMHWVRQRPGQGLEWIGEIYPNNGRVNYNEKFKNRATLTVDISSSTAYMQLSSLTSEDSAVYYCARSRYDPMEDWGQGTSVTVSS
VL: QVVLTQSPAIMSASPGEKVTMTCSASSSVGYMHWYQQKSGTSPKRWIYDTSKLASGVPTRFSGSGSGTSYSLTISSMEAEDAATYFCQQWSSIPLTFGSGTRLEIK
B2: humanized anti-TrkA antibody 42F5-01 (antibody, V domains shown)
VH: QVQLVQSGAEVKKPGASVKVSCKSSGYTFTNYWMHWVRQAPGQGLEWMGEIYPNNGRVNYNEKFKNRVTMTVDISISTAYMELSRLRSDDTAVYYCARSRYDPMEDWGQGTTVTVSS
VL: DVQLTQSPSSLSASVGDRVTITCSASSSVGYMHWYQQKPGKAPKRLIYDTSKLASGVPSRFSGSGSGTDYTLTISSLQPEDFATYFCQQWSSIPLTFGQGTRLEIK
notes: VH grafted to human IgG4 heavy chain constant region, VL to human Kappa light chain constant region; also called 43F5-01 [sic]
B3: humanized anti-TrkA antibody 42F5-11 (antibody, V domains shown)
VH: QVQLVQSGAEVKKPGASVKVSCKSSGYTFTNYWMHWVRQAPGQGLEWIGEIYPNNGRVNYNEKFKNRATLTVDISISTAYMELSRLRSDDTAVYYCARSRYDPMEDWGQGTTVTVSS
VL: EVVLTQSPATLSLSPGERATLSCSASSSVGYMHWYQQKPGQAPRRWIYDTSKLASGVPARFSGSGSGTDYTLTISSLEPEDAAVYFCQQWSSIPLTFGQGTRLEIK
notes: VH grafted to human IgG4 heavy chain constant region, VL to human Kappa light chain constant region
B4: humanized anti-TrkA antibody 42F5-08 (antibody, V domains shown)
VH: QVQLVQSGAEVKKPGSSVKVSCKSSGYTFTNYWMHWVRQAPGQGLEWIGEIYPNNGRVNYNEKFKNRATLTVDISTSTAYMELSSLRSEDTAVYYCARSRYDPMEDWGQGTTVTVSS
VL: QVQLTQSPSSLSASVGDRVTITCSASSSVGYMHWYQQKPGKAPKRWIYDTSKLASGVPSRFSGSGSGTDYTLTISSLQPEDFATYFCQQWSSIPLTFGQGTRLEIK
notes: VH grafted to human IgG4 heavy chain constant region, VL to human Kappa light chain constant region; also called 43F5-08 [sic]
B5: humanized anti-TrkA antibody 42F5-05 (antibody, V domains shown)
VH: QVQLVQSGAEVKKPGASVKVSCKSSGYTFTNYWMHWVRQAPGQGLEWMGEIYPNNGRVNYNEKFKNRVTMTVDISISTAYMELSRLRSDDTAVYYCARSRYDPMEDWGQGTTVTVSS
VL: QVQLTQSPSSLSASVGDRVTITCSASSSVGYMHWYQQKPGKAPKRLIYDTSKLASGVPSRFSGSGSGTDYTLTISSLQPEDFATYFCQQWSSIPLTFGQGTRLEIK
notes: as for B3
B6: humanized anti-TrkA antibody 42F5-03 (antibody, V domains shown)
VH: QVQLVQSGAEVKKPGASVKVSCKSSGYTFTNYWMHWVRQAPGQGLEWIGEIYPNNGRVNYNEKFKNRATLTVDISISTAYMELSRLRSDDTAVYYCARSRYDPMEDWGQGTTVTVSS
VL: DVQLTQSPSSLSASVGDRVTITCSASSSVGYMHWYQQKPGKAPKRWIYDTSKLASGVPSRFSGSGSGTDYTLTISSLQPEDFATYFCQQWSSIPLTFGQGTRLEIK
notes: as for B3
B7: humanized anti-TrkA antibody 42F5-14 (antibody, V domains shown)
VH: QVQLVQSGAEVKKPGASVKVSCKSSGYTFTNYWMHWVRQAPGQGLEWMGEIYPNQGRVNYNEKFKNRVTMTVDISISTAYMELSRLRSDDTAVYYCARSRYDPMEDWGQGTTVTVSS
VL: DVQLTQSPSSLSASVGDRVTITCSASSSVGYMHWYQQKPGKAPKRLIYDTSKLASGVPSRFSGSGSGTDYTLTISSLQPEDFATYFCQQWSSIPLTFGQGTRLEIK
notes: 42F5-01 with NG55-56 of the VH mutated to QG55-56
B8: humanized anti-TrkA antibody 42F5-04 (antibody, V domains shown)
VH: QVQLVQSGAEVKKPGSSVKVSCKSSGYTFTNYWMHWVRQAPGQGLEWIGEIYPNNGRVNYNEKFKNRATLTVDISTSTAYMELSSLRSEDTAVYYCARSRYDPMEDWGQGTTVTVSS
VL: DVQLTQSPSSLSASVGDRVTITCSASSSVGYMHWYQQKPGKAPKRWIYDTSKLASGVPSRFSGSGSGTDYTLTISSLQPEDFATYFCQQWSSIPLTFGQGTRLEIK
notes: as for B3
B9: humanized anti-TrkA antibody 42F5-13 (antibody, V domains shown)
VH: QVQLVQSGAEVKKPGASVKVSCKSSGYTFTNYWMHWVRQAPGQGLEWMGEIYPNSGRVNYNEKFKNRVTMTVDISISTAYMELSRLRSDDTAVYYCARSRYDPMEDWGQGTTVTVSS
VL: DVQLTQSPSSLSASVGDRVTITCSASSSVGYMHWYQQKPGKAPKRLIYDTSKLASGVPSRFSGSGSGTDYTLTISSLQPEDFATYFCQQWSSIPLTFGQGTRLEIK
notes: 42F5-01 with NG55-56 of the VH mutated to SG55-56
B10: control antibody BXhVH5VL1 (antibody, V domains shown)
VH: EVKLLESGGGLVQPGGSLRLSCAASGFTFSTYTMSWVRQTPGKRLEWVAYISKGGGSTYYPDTVKGRFTISRDNSKNTLYLQMNSLRAEDTAVYYCARGAMYGNDFFYPMDYWGQGTTVTVSS
VL: EIVLTQSPATLSLSPGERATLSCSASSSVSYMHWYQQKPGQAPRLLIYTTSNLASGIPARFSGSGSGTDFTLTISSLEPEDFAVYYCHQWSSYPWTFGQGTKLEIK

How the values were obtained:
[1] = biological target: T1, full-length human TrkA expressed on cells (human, UniProt P04629 33-796); assay: cell-based or functional assay
T1 sequence (P04629 33-796): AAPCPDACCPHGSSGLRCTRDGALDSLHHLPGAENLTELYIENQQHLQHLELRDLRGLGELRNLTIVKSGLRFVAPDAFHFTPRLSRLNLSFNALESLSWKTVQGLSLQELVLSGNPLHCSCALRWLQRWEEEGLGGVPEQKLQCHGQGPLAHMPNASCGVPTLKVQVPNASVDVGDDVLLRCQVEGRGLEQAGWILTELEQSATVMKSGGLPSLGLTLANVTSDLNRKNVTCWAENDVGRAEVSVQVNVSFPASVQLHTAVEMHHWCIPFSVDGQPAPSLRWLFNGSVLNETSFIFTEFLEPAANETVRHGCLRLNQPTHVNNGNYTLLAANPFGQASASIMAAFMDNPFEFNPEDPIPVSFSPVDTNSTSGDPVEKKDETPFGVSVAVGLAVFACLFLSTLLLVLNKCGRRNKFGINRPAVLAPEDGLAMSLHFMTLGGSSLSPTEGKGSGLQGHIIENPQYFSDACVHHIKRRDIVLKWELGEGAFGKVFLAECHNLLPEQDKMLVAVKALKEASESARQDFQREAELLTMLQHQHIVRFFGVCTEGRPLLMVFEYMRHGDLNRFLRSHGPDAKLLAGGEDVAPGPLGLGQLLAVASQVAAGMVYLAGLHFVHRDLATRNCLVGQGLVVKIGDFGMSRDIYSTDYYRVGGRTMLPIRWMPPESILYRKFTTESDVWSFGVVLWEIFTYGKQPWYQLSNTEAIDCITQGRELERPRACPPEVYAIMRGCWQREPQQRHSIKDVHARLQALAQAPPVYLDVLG

[2] = biological target: T1, full-length human TrkA expressed on …; assay: cell-based or functional assay; remark: listed apart in the source
[3] = biological target: T1, full-length human TrkA expressed on …; assay: flow cytometry titration on TrkA/CHO cells
Method: (§1) The cells were cultured according to the manufacturer's instruction. The cells were harvested in the logarithmic growth phase, re-suspended in flow buffer (PBS+2% FBS, pH 7.4), and added into 96-well plate, 10^5 cells per well (50 µl). 50 µl of 100 µg/mL humanized anti-TrkA antibody was added, incubated at room temperature for 60 min, and centrifuged at 1200 rpm. The supernatant was discarded and the cells were washed 3 times. FITC-labeled goat anti-human Fc antibody (Abeam, ab97224) was diluted to 5 µg/mL with flow buffer and used to re-suspend the cells, incubated at room temperature for 30 min in the dark, centrifuged, and the supernatant was discarded. After washing 3 times, the cells were re-suspended with 7AAD solution (Biolegend, 420403), incubated for 10 min at room temperature, and the binding of the antibody was detected with a flow cytometer (BioRad, ZE5).
The binding curve of the humanized anti-TrkA antibodies and TrkA/CHO cells was detected with the same flow cytometry.

[4] = biological target: T2, human TrkA extracellular region (33-417) protein containing mouse Fc (human, UniProt P04629 33-417); assay: ELISA, coated human TrkA (33-417)-mouse Fc, anti-human IgG-HRP
T2 construct: range 33-417
T2 sequence (P04629 33-417 limits assumed): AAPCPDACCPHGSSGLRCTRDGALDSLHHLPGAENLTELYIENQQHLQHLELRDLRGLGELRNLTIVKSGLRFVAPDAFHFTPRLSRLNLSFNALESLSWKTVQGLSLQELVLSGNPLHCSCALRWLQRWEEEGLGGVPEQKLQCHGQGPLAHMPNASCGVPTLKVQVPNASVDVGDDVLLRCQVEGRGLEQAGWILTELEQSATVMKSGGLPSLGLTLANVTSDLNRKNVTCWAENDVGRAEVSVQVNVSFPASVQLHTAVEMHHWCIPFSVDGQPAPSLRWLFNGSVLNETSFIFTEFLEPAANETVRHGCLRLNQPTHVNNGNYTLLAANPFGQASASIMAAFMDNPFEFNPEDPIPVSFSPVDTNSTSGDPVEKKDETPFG
Method: Each well of a 96-well microtiter plate was coated with 50 ng of human TrkA, washed and blocked, then added with serially diluted humanized antibodies, and incubated for 1 hour at room temperature. After washing three times, horseradish peroxidase-conjugated goat anti-human IgG antibody (ThermoFisher, A18817) was added and reacted at room temperature for 1 hour. After washing three time, tetramethylbenzidine (TMB, Biolegend) was added for color development. 1M HCl was used to terminate the color development, and the absorbance values were read at 450 nm with a microplate reader.

[5] = biological target: T3, human TrkB expressed on CHO cells (TrkB/CHO, ThermoFisher K1491) (human, UniProt Q16620 32-822); assay: flow cytometry on TrkB/CHO cells, FITC goat anti-human Fc
T3 construct: whole, on cells
T3 sequence (Q16620 32-822): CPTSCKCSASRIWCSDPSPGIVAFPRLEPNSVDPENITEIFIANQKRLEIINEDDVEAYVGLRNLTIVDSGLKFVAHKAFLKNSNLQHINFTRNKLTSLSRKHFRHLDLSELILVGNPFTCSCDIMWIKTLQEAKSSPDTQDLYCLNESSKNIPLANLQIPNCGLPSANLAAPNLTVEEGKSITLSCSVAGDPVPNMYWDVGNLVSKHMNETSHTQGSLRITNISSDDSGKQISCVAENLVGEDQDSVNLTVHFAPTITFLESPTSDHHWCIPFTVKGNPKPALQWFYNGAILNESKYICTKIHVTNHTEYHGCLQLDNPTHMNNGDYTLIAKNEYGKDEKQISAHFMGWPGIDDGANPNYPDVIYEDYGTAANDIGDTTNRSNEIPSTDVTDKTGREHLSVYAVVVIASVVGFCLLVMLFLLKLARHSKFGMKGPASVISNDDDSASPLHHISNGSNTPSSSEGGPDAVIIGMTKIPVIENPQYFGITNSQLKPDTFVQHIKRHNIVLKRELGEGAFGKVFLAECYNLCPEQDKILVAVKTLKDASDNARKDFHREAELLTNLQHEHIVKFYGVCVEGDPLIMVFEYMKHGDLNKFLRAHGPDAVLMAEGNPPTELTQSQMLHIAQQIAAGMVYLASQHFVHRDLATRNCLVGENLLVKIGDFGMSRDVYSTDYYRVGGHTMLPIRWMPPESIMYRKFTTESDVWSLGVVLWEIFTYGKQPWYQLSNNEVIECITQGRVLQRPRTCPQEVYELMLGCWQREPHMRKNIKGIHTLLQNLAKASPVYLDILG
Method: (§2) CHO-K1 was used as a negative control. The binding of the humanized antibodies to the four cell lines was detected by flow cytometry.
as §1

[6] = biological target: T4, human TrkC expressed on CHO cells (TrkC/CHO, ThermoFisher K1515) (human, UniProt Q16288 32-839); assay: flow cytometry on TrkC/CHO cells, FITC goat anti-human Fc
T4 construct: whole, on cells
T4 sequence (Q16288 32-839): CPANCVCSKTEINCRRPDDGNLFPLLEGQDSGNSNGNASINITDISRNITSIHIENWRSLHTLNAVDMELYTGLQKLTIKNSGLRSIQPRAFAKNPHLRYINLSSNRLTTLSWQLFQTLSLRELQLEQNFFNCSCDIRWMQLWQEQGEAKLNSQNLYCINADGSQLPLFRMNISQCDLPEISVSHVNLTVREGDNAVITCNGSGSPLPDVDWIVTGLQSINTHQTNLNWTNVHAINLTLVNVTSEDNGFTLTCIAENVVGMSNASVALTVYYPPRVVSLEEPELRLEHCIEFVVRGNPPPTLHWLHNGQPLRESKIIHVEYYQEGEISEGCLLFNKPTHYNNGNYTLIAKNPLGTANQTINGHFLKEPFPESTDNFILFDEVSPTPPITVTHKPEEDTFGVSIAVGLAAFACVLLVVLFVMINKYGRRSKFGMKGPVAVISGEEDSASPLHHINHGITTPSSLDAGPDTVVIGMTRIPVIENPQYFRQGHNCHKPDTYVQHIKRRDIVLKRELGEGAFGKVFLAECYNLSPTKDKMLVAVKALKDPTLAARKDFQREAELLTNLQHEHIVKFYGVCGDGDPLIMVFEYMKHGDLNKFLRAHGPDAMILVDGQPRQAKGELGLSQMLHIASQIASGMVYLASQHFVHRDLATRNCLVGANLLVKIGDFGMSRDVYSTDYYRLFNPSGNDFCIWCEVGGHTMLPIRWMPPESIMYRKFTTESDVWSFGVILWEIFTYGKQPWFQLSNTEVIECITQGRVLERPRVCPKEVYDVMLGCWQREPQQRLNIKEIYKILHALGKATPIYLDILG
Method: as §2, §1

[7] = biological target: T3, human TrkB expressed on CHO cells …; assay: flow cytometry on TrkB/CHO cells
Method: as §2, §1

[8] = biological target: T4, human TrkC expressed on CHO cells …; assay: flow cytometry on TrkC/CHO cells
Method: as §2, §1

[9] = biological target: full-length human TrkA expressed on cells (human) (UniProt P04629); assay: cell-based or functional assay
full-length human TrkA expressed on cells (human), sequence (P04629 33-796): as the sequence (P04629 33-796) above

[10] = biological target: T5, TrkA extracellular region (33-417) protein comprising human Fc (ACROBiosystems TRA-H5259) (human, UniProt P04629 33-417); assay: competition ELISA, coated TrkA (33-417)-hFc, antibody titrated, competitor biotin-labeled human NGF
T5 construct: range 33-417; Bought fusion protein; also called human TrkA (33-417); human TrkA extracellular region
T5 sequence (P04629 33-417 limits assumed): as the sequence (P04629 33-417 limits assumed) above
Method: Each well of a 96-well microtiter plate was coated with 50 ng of TrkA extracellular region (33-417) protein fused to human Fc, washed three times and blocked with 3% BSA for 1 hour. […] Each well was added with 100 μl and incubated at room temperature for 30 minutes. […] Streptavidin-labeled horseradish peroxidase (Streptavidin-HRP, Biolegend, 405210) was added and incubated for 0.5 hours. After washing three times, TMB was added to the plate, and the absorbance at 450 nm was read by a microplate reader after the color development was terminated.

Binder | IC50 of inhibiting NGF-induced TF-1 cell proliferation [1] [nM] | IC50 of inhibiting NGF-induced TrkA/Ba/F3 cell proliferation [2] [nM] | EC50 [3] [nM] | EC50 [4] [nM] | binding result [5] | binding result [6] | binding result [7] | binding result [8] | IC50 of inhibiting NGF-induced TF-1 cell proliferation [9] [nM] | IC50 of inhibiting NGF-induced TrkA/Ba/F3 cell proliferation [9] [nM] | inhibition rate for TrkA/Ba/F3 cell proliferation at 40 µg/mL (266.67 nM) [9] [%] | inhibition rate on NGF-induced TF-1 cell proliferation at 40 µg/mL (266.67 nM) [9] [%] | IC50 [10] [nM]
B1 | 1.55 | 2.92 | 0.49 | 0.062 | no binding | no binding |  |  |  |  |  |  | 
B2 | 1.57 | 2.97 | 0.605 | 0.061 | no binding | no binding |  |  |  |  |  |  | 
B3 | 1.4 | 2.81 | 0.513 | 0.05 | no binding | no binding |  |  |  |  |  |  | 
B4 | 1.65 | 3.54 | 0.535 | 0.055 | no binding | no binding |  |  |  |  |  |  | 
B5 | 1.48 | 4.42 | 0.68 | 0.072 | no binding | no binding |  |  |  |  |  |  | 
B6 | 1.43 | 2.91 |  | 0.056 |  |  | no binding (tested: 50 µl of 100 µg/mL) | no binding (tested: 50 µl of 100 µg/mL) |  |  |  |  | 
B7 | 1.94 | 3.27 | 0.547 | 0.071 | no binding | no binding |  |  |  |  |  |  | 
B8 | 1.69 | 3.69 |  | 0.07 |  |  | no binding (tested: 50 µl of 100 µg/mL) | no binding (tested: 50 µl of 100 µg/mL) |  |  |  |  | 
B9 | 0.867 | 3.31 | 0.518 | 0.087 | no binding | no binding |  |  |  |  |  |  | 
B10 |  |  |  |  |  |  |  |  | > 200 | > 200 | < 50 | < 40 | > 100
